Data: US20260049138A1 (Chugai, published 2026)

target: T1, CD3ε homodimer protein (human, UniProt P07766 23-126, limits assumed, sulfo-tag or biotin label in the ECL assays; amine-coupled to the chip in SPR); assay: SPR Biacore T200; CD3ε homodimer on CM4 chip;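 also: Single-residue variant antibodies injected as analyte over CD3ε homodimer immobilized by amine coupling, run at 25 °C in HBS-EP+ buffer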
T1 construct: also called human CD3ε homodimer protein; CD3 (CD3ε)
T1 sequence (P07766 23-126 limits assumed): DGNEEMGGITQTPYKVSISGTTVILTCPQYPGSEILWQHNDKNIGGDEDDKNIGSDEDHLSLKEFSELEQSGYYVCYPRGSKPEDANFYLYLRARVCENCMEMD

Binder	ratio of amounts bound Z=Y/X (altered form / CE115HA000)
CE115HA000 G65E one-arm antibody (antibody, human IgG1, kappa, L234A L235A, N297A, name in Kabat numbering) heavy: QVQLVESGGGVVQPGRSLRLSCAASGFTFSNAWMHWVRQAPGKGLEWVAQIKAKSNNYATYYAESVKERFTISRDDSKNSLYLQMNSLKTEDTAVYYCRYVHYGAYYGVDAWGQGTTVTVSSASTKGPSVFPLAPSSKSTSGGTAALGCLVKDYFPEPVTVSWNSGALTSGVHTFPAVLQSSGLYSLSSVVTVPSSSLGTQTYICNVNHKPSNTKVDKKVEPKSCDKTHTCPPCPAPEAAGGPSVFLFPPKPKDTLMISRTPEVTCVVVDVSHEDPEVKFNWYVDGVEVHNAKTKPREEQYASTYRVVSVLTVLHQDWLNGKEYKCKVSNKALPAPIEKTISKAKGQPREPQVYTLPPSRCELTKNQVSLSCAVKGFYPSDIAVEWESNGQPENNYKTTPPVLDSDGSFFLVSKLTVDKSRWQQGNVFSCSVMHEALHNHYTQKSLSLSPDYKDDDDK EPKSSDKTHTCPPCPAPELLGGPSVFLFPPKPKDTLMISRTPEVTCVVVDVSHEDPEVKFNWYVDGVEVHNAKTKPREEQYNSTYRVVSVLTVLHQDWLNGKEYKCKVSNKALPAPIEKTISKAKGQPREPQVCTLPPSRDELTKNQVSLWCLVKGFYPSDIAVEWESNGQPENNYKTTPPVLDSDGSFFLYSKLTVDKSRWQQGNVFSCSVMHEALHNRYTQKSLSLSP light: DIVMTQSPLSLPVTPGEPASISCRSSQSLVHSNRNTYLHWYQQKPGQAPRLLIYKVSNRFSGVPDRFSGSGSGTDFTLKISRVEAEDVGVYYCGQGTQVPYTFGQGTKLEIKRTVAAPSVFIFPPSDEQLKSGTASVVCLLNNFYPREAKVQWKVDNALQSGNSQESVTEQDSKDSTYSLSSTLTLSKADYEKHKVYACEVTHQGLSSPVTKSFNRGEC	0.78
CE115HA000 G98D one-arm antibody (antibody, human IgG1, kappa, L234A L235A, N297A, name in Kabat numbering) heavy: QVQLVESGGGVVQPGRSLRLSCAASGFTFSNAWMHWVRQAPGKGLEWVAQIKAKSNNYATYYAESVKGRFTISRDDSKNSLYLQMNSLKTEDTAVYYCRYVHYDAYYGVDAWGQGTTVTVSSASTKGPSVFPLAPSSKSTSGGTAALGCLVKDYFPEPVTVSWNSGALTSGVHTFPAVLQSSGLYSLSSVVTVPSSSLGTQTYICNVNHKPSNTKVDKKVEPKSCDKTHTCPPCPAPEAAGGPSVFLFPPKPKDTLMISRTPEVTCVVVDVSHEDPEVKFNWYVDGVEVHNAKTKPREEQYASTYRVVSVLTVLHQDWLNGKEYKCKVSNKALPAPIEKTISKAKGQPREPQVYTLPPSRCELTKNQVSLSCAVKGFYPSDIAVEWESNGQPENNYKTTPPVLDSDGSFFLVSKLTVDKSRWQQGNVFSCSVMHEALHNHYTQKSLSLSPDYKDDDDK EPKSSDKTHTCPPCPAPELLGGPSVFLFPPKPKDTLMISRTPEVTCVVVDVSHEDPEVKFNWYVDGVEVHNAKTKPREEQYNSTYRVVSVLTVLHQDWLNGKEYKCKVSNKALPAPIEKTISKAKGQPREPQVCTLPPSRDELTKNQVSLWCLVKGFYPSDIAVEWESNGQPENNYKTTPPVLDSDGSFFLYSKLTVDKSRWQQGNVFSCSVMHEALHNRYTQKSLSLSP light: DIVMTQSPLSLPVTPGEPASISCRSSQSLVHSNRNTYLHWYQQKPGQAPRLLIYKVSNRFSGVPDRFSGSGSGTDFTLKISRVEAEDVGVYYCGQGTQVPYTFGQGTKLEIKRTVAAPSVFIFPPSDEQLKSGTASVVCLLNNFYPREAKVQWKVDNALQSGNSQESVTEQDSKDSTYSLSSTLTLSKADYEKHKVYACEVTHQGLSSPVTKSFNRGEC	0.26
CE115HA000 G98H one-arm antibody (antibody, human IgG1, kappa, L234A L235A, N297A, name in Kabat numbering) heavy: QVQLVESGGGVVQPGRSLRLSCAASGFTFSNAWMHWVRQAPGKGLEWVAQIKAKSNNYATYYAESVKGRFTISRDDSKNSLYLQMNSLKTEDTAVYYCRYVHYHAYYGVDAWGQGTTVTVSSASTKGPSVFPLAPSSKSTSGGTAALGCLVKDYFPEPVTVSWNSGALTSGVHTFPAVLQSSGLYSLSSVVTVPSSSLGTQTYICNVNHKPSNTKVDKKVEPKSCDKTHTCPPCPAPEAAGGPSVFLFPPKPKDTLMISRTPEVTCVVVDVSHEDPEVKFNWYVDGVEVHNAKTKPREEQYASTYRVVSVLTVLHQDWLNGKEYKCKVSNKALPAPIEKTISKAKGQPREPQVYTLPPSRCELTKNQVSLSCAVKGFYPSDIAVEWESNGQPENNYKTTPPVLDSDGSFFLVSKLTVDKSRWQQGNVFSCSVMHEALHNHYTQKSLSLSPDYKDDDDK EPKSSDKTHTCPPCPAPELLGGPSVFLFPPKPKDTLMISRTPEVTCVVVDVSHEDPEVKFNWYVDGVEVHNAKTKPREEQYNSTYRVVSVLTVLHQDWLNGKEYKCKVSNKALPAPIEKTISKAKGQPREPQVCTLPPSRDELTKNQVSLWCLVKGFYPSDIAVEWESNGQPENNYKTTPPVLDSDGSFFLYSKLTVDKSRWQQGNVFSCSVMHEALHNRYTQKSLSLSP light: DIVMTQSPLSLPVTPGEPASISCRSSQSLVHSNRNTYLHWYQQKPGQAPRLLIYKVSNRFSGVPDRFSGSGSGTDFTLKISRVEAEDVGVYYCGQGTQVPYTFGQGTKLEIKRTVAAPSVFIFPPSDEQLKSGTASVVCLLNNFYPREAKVQWKVDNALQSGNSQESVTEQDSKDSTYSLSSTLTLSKADYEKHKVYACEVTHQGLSSPVTKSFNRGEC	1.58
CE115HA000 G98P one-arm antibody (antibody, human IgG1, kappa, L234A L235A, N297A, name in Kabat numbering) heavy: QVQLVESGGGVVQPGRSLRLSCAASGFTFSNAWMHWVRQAPGKGLEWVAQIKAKSNNYATYYAESVKGRFTISRDDSKNSLYLQMNSLKTEDTAVYYCRYVHYPAYYGVDAWGQGTTVTVSSASTKGPSVFPLAPSSKSTSGGTAALGCLVKDYFPEPVTVSWNSGALTSGVHTFPAVLQSSGLYSLSSVVTVPSSSLGTQTYICNVNHKPSNTKVDKKVEPKSCDKTHTCPPCPAPEAAGGPSVFLFPPKPKDTLMISRTPEVTCVVVDVSHEDPEVKFNWYVDGVEVHNAKTKPREEQYASTYRVVSVLTVLHQDWLNGKEYKCKVSNKALPAPIEKTISKAKGQPREPQVYTLPPSRCELTKNQVSLSCAVKGFYPSDIAVEWESNGQPENNYKTTPPVLDSDGSFFLVSKLTVDKSRWQQGNVFSCSVMHEALHNHYTQKSLSLSPDYKDDDDK EPKSSDKTHTCPPCPAPELLGGPSVFLFPPKPKDTLMISRTPEVTCVVVDVSHEDPEVKFNWYVDGVEVHNAKTKPREEQYNSTYRVVSVLTVLHQDWLNGKEYKCKVSNKALPAPIEKTISKAKGQPREPQVCTLPPSRDELTKNQVSLWCLVKGFYPSDIAVEWESNGQPENNYKTTPPVLDSDGSFFLYSKLTVDKSRWQQGNVFSCSVMHEALHNRYTQKSLSLSP light: DIVMTQSPLSLPVTPGEPASISCRSSQSLVHSNRNTYLHWYQQKPGQAPRLLIYKVSNRFSGVPDRFSGSGSGTDFTLKISRVEAEDVGVYYCGQGTQVPYTFGQGTKLEIKRTVAAPSVFIFPPSDEQLKSGTASVVCLLNNFYPREAKVQWKVDNALQSGNSQESVTEQDSKDSTYSLSSTLTLSKADYEKHKVYACEVTHQGLSSPVTKSFNRGEC	1.02
CE115HA000 G98A one-arm antibody (antibody, human IgG1, kappa, L234A L235A, N297A, name in Kabat numbering) heavy: QVQLVESGGGVVQPGRSLRLSCAASGFTFSNAWMHWVRQAPGKGLEWVAQIKAKSNNYATYYAESVKGRFTISRDDSKNSLYLQMNSLKTEDTAVYYCRYVHYAAYYGVDAWGQGTTVTVSSASTKGPSVFPLAPSSKSTSGGTAALGCLVKDYFPEPVTVSWNSGALTSGVHTFPAVLQSSGLYSLSSVVTVPSSSLGTQTYICNVNHKPSNTKVDKKVEPKSCDKTHTCPPCPAPEAAGGPSVFLFPPKPKDTLMISRTPEVTCVVVDVSHEDPEVKFNWYVDGVEVHNAKTKPREEQYASTYRVVSVLTVLHQDWLNGKEYKCKVSNKALPAPIEKTISKAKGQPREPQVYTLPPSRCELTKNQVSLSCAVKGFYPSDIAVEWESNGQPENNYKTTPPVLDSDGSFFLVSKLTVDKSRWQQGNVFSCSVMHEALHNHYTQKSLSLSPDYKDDDDK EPKSSDKTHTCPPCPAPELLGGPSVFLFPPKPKDTLMISRTPEVTCVVVDVSHEDPEVKFNWYVDGVEVHNAKTKPREEQYNSTYRVVSVLTVLHQDWLNGKEYKCKVSNKALPAPIEKTISKAKGQPREPQVCTLPPSRDELTKNQVSLWCLVKGFYPSDIAVEWESNGQPENNYKTTPPVLDSDGSFFLYSKLTVDKSRWQQGNVFSCSVMHEALHNRYTQKSLSLSP light: DIVMTQSPLSLPVTPGEPASISCRSSQSLVHSNRNTYLHWYQQKPGQAPRLLIYKVSNRFSGVPDRFSGSGSGTDFTLKISRVEAEDVGVYYCGQGTQVPYTFGQGTKLEIKRTVAAPSVFIFPPSDEQLKSGTASVVCLLNNFYPREAKVQWKVDNALQSGNSQESVTEQDSKDSTYSLSSTLTLSKADYEKHKVYACEVTHQGLSSPVTKSFNRGEC	1.1
CE115HA000 G98K one-arm antibody (antibody, human IgG1, kappa, L234A L235A, N297A, name in Kabat numbering) heavy: QVQLVESGGGVVQPGRSLRLSCAASGFTFSNAWMHWVRQAPGKGLEWVAQIKAKSNNYATYYAESVKGRFTISRDDSKNSLYLQMNSLKTEDTAVYYCRYVHYKAYYGVDAWGQGTTVTVSSASTKGPSVFPLAPSSKSTSGGTAALGCLVKDYFPEPVTVSWNSGALTSGVHTFPAVLQSSGLYSLSSVVTVPSSSLGTQTYICNVNHKPSNTKVDKKVEPKSCDKTHTCPPCPAPEAAGGPSVFLFPPKPKDTLMISRTPEVTCVVVDVSHEDPEVKFNWYVDGVEVHNAKTKPREEQYASTYRVVSVLTVLHQDWLNGKEYKCKVSNKALPAPIEKTISKAKGQPREPQVYTLPPSRCELTKNQVSLSCAVKGFYPSDIAVEWESNGQPENNYKTTPPVLDSDGSFFLVSKLTVDKSRWQQGNVFSCSVMHEALHNHYTQKSLSLSPDYKDDDDK EPKSSDKTHTCPPCPAPELLGGPSVFLFPPKPKDTLMISRTPEVTCVVVDVSHEDPEVKFNWYVDGVEVHNAKTKPREEQYNSTYRVVSVLTVLHQDWLNGKEYKCKVSNKALPAPIEKTISKAKGQPREPQVCTLPPSRDELTKNQVSLWCLVKGFYPSDIAVEWESNGQPENNYKTTPPVLDSDGSFFLYSKLTVDKSRWQQGNVFSCSVMHEALHNRYTQKSLSLSP light: DIVMTQSPLSLPVTPGEPASISCRSSQSLVHSNRNTYLHWYQQKPGQAPRLLIYKVSNRFSGVPDRFSGSGSGTDFTLKISRVEAEDVGVYYCGQGTQVPYTFGQGTKLEIKRTVAAPSVFIFPPSDEQLKSGTASVVCLLNNFYPREAKVQWKVDNALQSGNSQESVTEQDSKDSTYSLSSTLTLSKADYEKHKVYACEVTHQGLSSPVTKSFNRGEC	2.83
